The results in this text go back to patent publication US20250011448A1 (STAIDSON BIOPHARMA, published 2025).

Assay [1] deals with T1, cynomolgus monkey TNFR2 extracellular domain with C-terminal 10×His tag (cynomolgus monkey, UniProt P20333 23-257 (human entry)).
T1 construct: also called cynoTNFR2-His; His-tag-cynoTNFR2
T1 chain: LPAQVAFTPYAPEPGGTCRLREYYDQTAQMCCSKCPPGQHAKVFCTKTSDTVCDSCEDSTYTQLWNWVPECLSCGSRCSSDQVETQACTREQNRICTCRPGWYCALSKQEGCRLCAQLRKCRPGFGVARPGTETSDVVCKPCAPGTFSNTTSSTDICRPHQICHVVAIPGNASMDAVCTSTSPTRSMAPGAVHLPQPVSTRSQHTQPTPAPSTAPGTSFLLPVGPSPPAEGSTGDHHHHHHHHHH
Kind of assay: ELISA, plate coated with His-tagged TNFR2 ECD, serial dilution of chimeric IgG. On the procedure: (§1) TNFR2 binding of purified recombinant chimeric antibodies: The huTNFR2, cynoTNFR2 antigen binding ELISA was performed on the purified recombinant chimeric antibodies. Briefly, 384-well, clear, flat bottom, high binding plates (VWR, cat #29444-096) were coated overnight at 4° C. with 1 μg/mL of huTNFR2 or cynomolgus monkey TNFR2-His in PBS. After removing the coating solution, the plates were blocked by adding blocking buffer and incubated at room temperature for 1 hour. Plates were then washed 3 times with wash buffer. Serial dilution of purified antibodies in PBS was added to individual well followed by incubation at room temperature for 1 hour. Plates were washed 3 times with wash buffer. Then 50 μL/well of goat anti hu Kappa —AP (Southern Biotech, cat #2061-04) at 1:3000 dilution or goat anti human IgG Fc-AP at 1:3000 dilution in ELISA diluent was added, incubated at room temperature for 1 hour, washed 5 times with wash buffer and developed for 30 minutes with 50 μL/well of pNPP substrate. Plates were analyzed with a Bio-TEK at 405 nm. The chimeric TNFR2 antibodies were tested positive for binding to huTNFR2 and cynoTNFR2. The TNFR2 binding EC50 values are shown in Table 6, FIG. 1A (for huTNFR2) and FIG. 1B (for cynoTNFR2).

Assay [2] deals with T2, human TNFR2 extracellular domain with C-terminal 10×His tag (human, UniProt P20333 23-257).
T2 construct: also called huTNFR2-His; His-tag-huTNFR2
T2 sequence: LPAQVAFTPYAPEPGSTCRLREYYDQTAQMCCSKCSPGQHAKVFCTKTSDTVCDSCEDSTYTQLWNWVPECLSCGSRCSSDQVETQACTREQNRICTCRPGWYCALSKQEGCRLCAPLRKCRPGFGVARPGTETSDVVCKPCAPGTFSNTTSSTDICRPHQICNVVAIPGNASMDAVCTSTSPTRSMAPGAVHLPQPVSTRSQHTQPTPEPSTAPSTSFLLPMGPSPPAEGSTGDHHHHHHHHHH
Described as above. The procedure: as §1

The target in assay [3] is T3, human TNFR2 expressed on cells (Expi293 cells stably expressing huTNFR2) (human, UniProt P20333 23-461).
T3 construct: whole, on cells; Also used here as the target of the Treg assay (native TNFR2 on human primary Treg cells); also called huTNFR2 expressed cells; Expi293-TNFR2 cells
T3 sequence (looked up): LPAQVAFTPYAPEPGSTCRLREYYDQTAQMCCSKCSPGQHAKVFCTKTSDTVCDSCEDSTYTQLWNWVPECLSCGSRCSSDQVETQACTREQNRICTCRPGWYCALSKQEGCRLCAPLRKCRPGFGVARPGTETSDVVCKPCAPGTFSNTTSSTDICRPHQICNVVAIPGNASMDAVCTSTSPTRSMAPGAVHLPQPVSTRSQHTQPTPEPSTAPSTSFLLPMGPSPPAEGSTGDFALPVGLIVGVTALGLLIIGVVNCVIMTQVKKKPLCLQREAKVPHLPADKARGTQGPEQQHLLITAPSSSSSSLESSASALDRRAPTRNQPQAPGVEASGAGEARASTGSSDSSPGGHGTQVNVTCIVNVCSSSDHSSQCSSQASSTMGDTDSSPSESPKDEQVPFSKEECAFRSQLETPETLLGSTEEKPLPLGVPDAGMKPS
Kind of assay: flow cytometry: inhibition of binding of 10 nM Alexa Fluor 647 human TNFα to Expi293 cells expressing huTNFR2. On the procedure:
Expi293 cells stably expressing huTNFR2 were incubated with anti-TNFR2 antibodies for 30 minutes at 4° C. […] Cells were washed and acquired by flow cytometry with Attune. Data were analyzed with FlowJo software. TNFα binding is represented as MFI.
As shown in Table 10 and FIG. 4B, the anti-TNFR2 chimeric antibodies, 51B5, 85G8.4, 29G3, 11C1, and 15H10 inhibited soluble TNFα binding to TNFR2-expressing Expi293 cells dose-dependently and potently.
(Flow cytometry measures light scatter and fluorescence of single cells or particles in a stream.)

For assay [4], the target named is T1, cynomolgus monkey TNFR2 extracellular …. Kind of assay: BLI (Octet RED96), antibody captured on AHC biosensor, His-tagged TNFR2 in solution, 1:1 model.
The target in assay [5] is T2, human TNFR2 extracellular domain with …. The description is as above.

B1: 85G8.4 chimeric anti-TNFR2 antibody (antibody, V domains shown)
VH: EVQLQQSGPELVKPGASVKISCKTSGYTFTDFNMDWVKQSHGKSLEWIGYINPNNGDAAYNQKFKSKATLTVDKSSNTAYMELHSLTSDDSAVYYCARWGWAFAYWGQGTLVTVSA
VL: DIVMTQSHKIMSTSVGDRVSITCKASQDVKTAVAWYQQKPGQSPKLLIYATSYRYTGVPDRFTGSGSGTDFTFTISTVQAEDLAVYYCQQHYSIPYTFGGGTKLEIK
notes: Chimeric: mouse variable domains with human constant regions, made as recombinant IgG1
One may read the EC50 as the concentration giving half of the maximal effect. Usually IC50 stands for the midpoint of a concentration-inhibition curve. For orientation: Kd means the constant that tells how readily two partners part at equilibrium. Broadly, the koff is a measure of how fast the partners let go of each other. A word on the kon: it is the rate constant with which the complex forms. Consider B1, for which the EC50 stood at 0.0488 nM in assay [1] and 0.039 nM in assay [2]. In addition, the IC50 in assay [3] is 1.57 nM. For the same molecule, the values for the Kd in assay [4] and in assay [5] were 1.3 nM and 1.95 nM, respectively. The koff in assay [4] came out at 0.000534 s⁻¹; in assay [5] it was 0.000251 s⁻¹. For the same molecule, the kon in assay [4] is 412000 M⁻¹ s⁻¹; in assay [5], 129000 M⁻¹ s⁻¹.

B2: 29G3 chimeric anti-TNFR2 antibody (antibody, V domains shown)
VH: EVMLVESGGASVKPGGSLKLSCAASGFTFSNFAMSWVRQTPEKRLEWVATIRSGDNYSYYSDNVKGRFTISRDNARNTLYLQMSSLRSKDTSIYYCARNWDKVFDYWGQGTTLTVSS
VL: DIVLTQSPASLAVSLGQRATISCRASESVDSYGYSFMHWYQQKPGQPPKLLIYRASNLKSGIPARFSGSGSRTDFTLTINPVEADDVATYYCQQSNEDHTFGGGTKLEIK
notes: as for B1
B2 came in with an EC50 in assay [1] of 0.0414 nM. The molecule also showed an EC50 in assay [2] of 0.0293 nM. This molecule also came in with a half-inhibitory concentration (IC50) in assay [3] of 0.275 nM. In assay [4], binding was put at a Kd of 1.59 nM, the koff is 0.002 s⁻¹ and the kon came to 1.26e+06 M⁻¹ s⁻¹. For the same molecule, in assay [5], binding was put at a Kd of 4.53 nM, the off-rate (koff) was determined as 0.00114 s⁻¹ and the kon worked out at 251000 M⁻¹ s⁻¹.

B3: 15H10 chimeric anti-TNFR2 antibody (antibody, V domains shown)
VH: DVQLQESGPGLVTPSQSLSLTCSVTGYSITSGYYWNWIRQFPGNKLEWMGYITYDGNNNYNPSLKSRFSITRDTSKNQFFLKLNSVTSEDTATYYCARGDYGDSAMDYWGQGTSVTVSS
VL: EIVLTQSPAITAASLGQKVTITCSASSGVNYMHWYQQKSGTSPKPWIYEISKLASGVPARFSGSGSGTSYSLTISSMEAEDAAIYYCQQWNYPLITFGAGTKVELK
notes: as for B1
Regarding B3, the concentration giving a half-maximal response (EC50) in assay [1] is 0.05 nM. This molecule also registered an EC50 in assay [2] of 0.051 nM. Also, the IC50 in assay [3] came out at 3.37 nM. In addition, in assay [4], the Kd is 1.42 nM, the koff turned out to be 0.000368 s⁻¹ and the kon worked out at 259000 M⁻¹ s⁻¹. In assay [5], this molecule gave a Kd of 0.453 nM, a koff of 2.58e-05 s⁻¹ and a kon of 57100 M⁻¹ s⁻¹.

B4: 11C1 chimeric anti-TNFR2 antibody (antibody, V domains shown)
VH: DVQLRESGPGLVTPSQSLSLTCSVTGYSITSGYYWNWIRQIPGNKLEWMGYITYDGNNNYDPSLKNRISITRDTSKNQFFLTLNSVTSEDTATYYCARGDYGDSAMDYWGQGTSVTVSS
VL: EIVLTQSPAITAASLGQKVTITCSASSSVSYMHWYQQKSGTSPKPWIYEISKLASGVPARFSGSGSGTSYSLIISSMEAEDAAIYYCQQWNYPLITFGAGTKLELK
notes: as for B1
As for B4, it took 0.057 nM to reach a half-maximal effect in assay [1] (EC50). This molecule also showed an EC50 in assay [2] of 0.0508 nM. Besides, in assay [3], the IC50 was found to be 2.51 nM. Moreover, in assay [5], the affinity, expressed as Kd, was 2.46 nM; the koff was 0.000258 s⁻¹; the kon turned out to be 105000 M⁻¹ s⁻¹.
